The values that follow come from article PMC3075490.

The series deals with T1, [4Fe-4S]-NsrR-His6 (anaerobically purified) (Bacillus subtilis (JH642 background), UniProt O07573 1-146).
T1 sequence: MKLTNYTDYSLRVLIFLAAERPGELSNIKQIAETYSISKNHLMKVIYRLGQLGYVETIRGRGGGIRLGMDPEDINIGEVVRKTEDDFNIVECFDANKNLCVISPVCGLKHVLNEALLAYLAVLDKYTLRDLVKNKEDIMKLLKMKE
Description: EMSA. (In general: In EMSA bound probe runs differently from free probe, usually more slowly.)

As for GCATAACATGTATCTTAAATATTCCTTTCG (ssDNA) [nasD coding strand 30-mer oMN09-489], the binding result is “no binding”.
